Source: patent US20140186359A1 (TORAY INDUSTRIES, published 2014)
Numbering of substitutions follows the chain as printed.

T1: human CAPRIN-1 expressed on the surface of human cancer cells (human, UniProt Q14444 2-709)
T1 sequence: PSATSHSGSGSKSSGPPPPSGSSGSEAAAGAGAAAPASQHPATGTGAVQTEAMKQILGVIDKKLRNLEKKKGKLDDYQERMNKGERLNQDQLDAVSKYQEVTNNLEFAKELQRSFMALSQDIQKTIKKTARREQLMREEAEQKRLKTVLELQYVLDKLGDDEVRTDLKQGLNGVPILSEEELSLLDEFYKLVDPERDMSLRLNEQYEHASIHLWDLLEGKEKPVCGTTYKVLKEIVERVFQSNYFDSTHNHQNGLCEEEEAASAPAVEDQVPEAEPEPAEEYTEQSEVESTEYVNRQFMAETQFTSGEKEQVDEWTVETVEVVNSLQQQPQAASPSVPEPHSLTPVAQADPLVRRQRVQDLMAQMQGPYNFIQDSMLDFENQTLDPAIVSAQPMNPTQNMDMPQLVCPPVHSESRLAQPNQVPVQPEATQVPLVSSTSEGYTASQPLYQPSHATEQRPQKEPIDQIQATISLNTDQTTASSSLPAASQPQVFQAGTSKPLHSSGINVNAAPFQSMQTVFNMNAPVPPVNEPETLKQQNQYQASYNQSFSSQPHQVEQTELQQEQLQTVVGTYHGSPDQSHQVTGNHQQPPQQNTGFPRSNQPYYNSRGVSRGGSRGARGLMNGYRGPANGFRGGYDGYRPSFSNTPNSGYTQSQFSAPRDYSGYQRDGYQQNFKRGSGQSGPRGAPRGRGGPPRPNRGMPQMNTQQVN

B1: human-chicken chimeric monoclonal antibody #1 (antibody, V domains shown)
VH: AVTLDESGGGLQTPGGALSLVCKASGFTFRSHSMFWVRQAPGKGLEYVAGIYGVGRSIRYGSAVKGRATMSRDNGQSTVRLQLNNLRAEDTATYYCAKSGYFSNSRYWDSGAYFIDAWGHGTEVIVS
VL: ALTQPASVSANPGETVEITCSGGYSNYGWYQQKSPGSAPVTVIYYNDKRPSDIPSRFSGSKSGSTATLTITGVQAEDEAVYFCGGYDSSTDAGIFGAGTTLTV
B2: human-chicken chimeric monoclonal antibody #2 (antibody, V domains shown)
VH: B1 VH with A92G, S105R
VL: B1 VL with P12L, E14G, A66G, Q74R, F82Y
B3: human-chicken chimeric monoclonal antibody #3 (antibody, V domains shown)
VH: AVTLDESGGGLQTPGGGLSLVCKGSGFTFSSFGMFWVRQAPGKGLEFVASISDNGRSTYYGSAVKGRATISRDDGQSTVRLQLNNLRAEDTGTYYCAKNAYVGRGCCFSYSIDAWGHGTEVIVS
VL: ALTQPASVSVNPGETVKITCSGGGSSSDAYGWYQQKSPGSAPVTLIYNGSNRPSHIPSRFSGSTSGSTNTLTITGVQVEDEAIYFCGSTDTSTSVGIFGAGTTLTV
B4: human-mouse chimeric comparative monoclonal antibody 2 (antibody, human IgG1, kappa)
heavy: not shown
light: AVLRCSRGLLVIWISDIQLTQSPSSLAVTAGEKVTMSCKSSQSLLWSVNQKNYLSWYQQKQRQPPKLLIYGASIRESWVPDRFTGSGSGTDFTLTISNVHAEDLAVYYCQHNHGSFLPSRSEQVPSWRSNNRTVAAPSVFIFPPSDEQLKSGTASVVCLLNNFYPREAKVQWKVDNALQSGNSQESVTEQDSKDSTYSLSSTLTLSKADYEKHKVYACEVTHQGLSSPVTKSFNRGEC
B5: human-mouse chimeric comparative monoclonal antibody 3 (antibody, human IgG1, kappa)
heavy: not shown
light: RTTSHMDSDIQLTQSPASLSASVGETVTITCRASGNIHNYLAWYQQKQGKSPQLLVYNAKTLADGVPSRFSGSGSGTQYSLKINSLQPEDFGSYYCQHFWSTLTFGGGTKLEIKQSDTVAAPSVFIFPPSDEQLKSGTASVVCLLNNFYPREAKVQWKVDNALQSGNSQESVTEQDSKDSTYSLSSTLTLSKADYEKHKVYACEVTHQGLSSPVTKSFNRGEC
B6: human-mouse chimeric comparative monoclonal antibody 4 (antibody, human IgG1, kappa, V domains shown)
VH: EVQLHQFGAELVKPGASVKISCKASGYTFTDYNMDWVKQSHGKSLEWIGDINPNYDSTSYNQKFKGKATLTVDKSSSTAYMELRSLTSEDTAVYYCARSRSYDYEGFAYWGQGTLVTVSA
VL: SGDRVSLSCRASQSISNYLHWYQQKSHESPRLLIKYASQSISGIPSRFSGSGSGTDFTLSINSVETEDFGMYFCQQSNSWPYTFGAGTKLEIKQ
B7: human-mouse chimeric comparative monoclonal antibody 5 (antibody, human IgG1, kappa)
heavy: not shown
light: GLFCSVERCHYQLQSSQNLLSIVNRYHYMSGNPPKLLVYPALLIYEASITKSCVPDRFTRSGSGTNFTLTINFVHADDLIFYYCQHNRGSFLPSSSVQVPRRRSNTVAAPSVFIFPPSDEQLKSGTASVVCLLNNFYPREAKVQWKVDNALQSGNSQESVTEQDSKDSTYSLSSTLTLSKADYEKHKVYACEVTHQGLSSPVTKSFNRGEC
B8: human-mouse chimeric comparative monoclonal antibody 6 (antibody, human IgG1, kappa)
heavy: not shown
light: DRVSITCKASQNVRTAVAWYQQKPRQSPKALIYLASNRDTGLPDRFPGRGSGTDFTLNITNVQSEDLEDYFCLQHCNYPNEFRGCTKVPITVAAPSVFIFPPSDEQLKSGTASVVCLLNNFYPREAKVQWKVDNALQSGNSQESVTEQDSKDSTYSLSSTLTLSKADYEKHKVYACEVTHQGLSSPVTKSFNRGEC
B9: human-mouse chimeric comparative monoclonal antibody 7 (antibody, human IgG1, kappa, V domains shown)
VH: LQESGAELARPGASVKLSCKASGYTFTSYWMQWVKQRPGQGLEWIGAIYPGDGDTRYTQKFKGKATLTADKSSSTAYMQLSSLASEDSAVYYCARGEYGNYFAYWGQGTTVTVSS
VL: TSDASLGERVTITCKASQDINSYLSWFQQKPGKSPKTLIYRANRLVDGVPSRFSGSGSGQDYSLTISSLEYEDMGIYYCLQYDEFPLTFGGGTKLEIKQ
B10: human-mouse chimeric comparative monoclonal antibody 8 (antibody, human IgG1, kappa)
heavy: not shown
light: EFHAVSLGQRATISCRASESVDSYGNSFMHWYQQKPGQPPKLLIYRASNLESGIPARFSGSGSRTDFTLTINPVEADDVATYYCQQSNEDPGRSEVVPSWRSNKTVAAPSVFIFPPSDEQLKSGTASVVCLLNNFYPREAKVQWKVDNALQSGNSQESVTEQDSKDSTYSLSSTLTLSKADYEKHKVYACEVTHQGLSSPVTKSFNRGEC
B11: human-mouse chimeric comparative monoclonal antibody 10 (antibody, human IgG1, kappa)
heavy: not shown
light: RLPFYSLEQRATISYRASKNVSTSGYSYMHWNQQKPGQPPKLLIYLVSNLESGVPARFSGSGSGTDFTLNIHPVEEEDAATYYCQHIRELTRSELVPSWKSNTVAAPSVFIFPPSDEQLKSGTASVVCLLNNFYPREAKVQWKVDNALQSGNSQESVTEQDSKDSTYSLSSTLTLSKADYEKHKVYACEVTHQGLSSPVTKSFNRGEC

Target: T1, human CAPRIN-1 expressed on the surface …
Assay: cell-based or functional assay
For ADCC cytotoxic activity (51Cr release) against A549 in this document: test concentration or dose not given here.
For ADCC cytotoxic activity (51Cr release) against Caki-1 in this document: test concentration or dose not given here.
For ADCC cytotoxic activity (51Cr release) against Caki-2 in this document: test concentration or dose not given here.
For ADCC cytotoxic activity (51Cr release) against DLD-1 in this document: test concentration or dose not given here.

Binder | ADCC cytotoxic activity (51Cr release) against A549 | ADCC cytotoxic activity (51Cr release) against Caki-1 | ADCC cytotoxic activity (51Cr release) against Caki-2 | ADCC cytotoxic activity (51Cr release) against DLD-1 | ADCC cytotoxic activity (51Cr release) against HCT-116 | ADCC cytotoxic activity (51Cr release) against MCF7 | ADCC cytotoxic activity (51Cr release) against MDA-MB-436 | ADCC cytotoxic activity (51Cr release) against MIAPaCa-2 | ADCC cytotoxic activity (51Cr release) against Panc-1 | ADCC cytotoxic activity (51Cr release) against QG56 | ADCC cytotoxic activity (51Cr release) against all other cancer cell lines listed
B1 | ≥ 12% | ≥ 14% | ≥ 34% | ≥ 15% | ≥ 19% | ≥ 30% | ≥ 18% | ≥ 28% | ≥ 18% | ≥ 10% | ≥ 10%
B2 | ≥ 12% | ≥ 14% | ≥ 34% | ≥ 15% | ≥ 19% | ≥ 30% | ≥ 18% | ≥ 28% | ≥ 18% | ≥ 10% | ≥ 10%
B3 | ≥ 12% | ≥ 14% | ≥ 34% | ≥ 15% | ≥ 19% | ≥ 30% | ≥ 18% | ≥ 28% | ≥ 18% | ≥ 10% | ≥ 10%
B4 |  |  | < 8% |  | < 3% | < 5% |  | 7% |  | < 5% | < 4%
B5 |  |  | < 8% |  | < 3% | < 5% |  | 7% |  | < 5% | < 4%
B6 |  |  | < 8% |  | < 3% | < 5% |  | 7% |  | < 5% | < 4%
B7 |  |  | < 8% |  | < 3% | < 5% |  | 7% |  | < 5% | < 4%
B8 |  |  | < 8% |  | < 3% | < 5% |  | 7% |  | < 5% | < 4%
B9 |  |  | < 8% |  | < 3% | < 5% |  | 7% |  | < 5% | < 4%
B10 |  |  | < 8% |  | < 3% | < 5% |  | 7% |  | < 5% | < 4%
B11 |  |  | < 8% |  | < 3% | < 5% |  | 7% |  | < 5% | < 4%
